Assay results published in patent US9611465B2, “Pharmaceutical composition containing core factor involved in proliferation and differentiation of central nervous cell” (Celgene Corporation, priority 2009, dated 2017).
Where a SMILES comes first, the peptide text is derived from it. The star is where a group is joined. Cbz = O=C(OCc1ccccc1)*

Key:
[1] = test system: mammalian cells expressing CRBN fused with a FLAG epitope tag; assay: CRBN ubiquitin ligase activity using live cells (self-ubiquitination, immunoblotting); type: cell-based; conditions: MG132 added versus not added (FIG. 5)
Experimental: This process was carried out basically in accordance with the method of Ohtake et al. MG132, which is a proteasome inhibitor, was applied to mammalian cells expressing CRBN fused with a FLAG epitope tag, and the cells were left still. Subsequently, the cells were disrupted, and from the resulting cell lysate solution, FLAG was purified and CRBN was extracted, and then immunoblotting was performed under similar, but stricter, conditions to the above, whereby the self-ubiquitination was detected and measured.

[2] = target: T1, Ub/E1/E2 (GST fusion ubiquitin, Uba1, UbcH5b) (Homo sapiens, UniProt P0CG47+P22314+P62837); assay: Ubiquitin ligase activity of CRBN using an in vitro reaction system; type: biochemical; conditions: added to Uba1, UbcH5b and GST fusion ubiquitin; FIG. 4, lane 2
T1 construct: a recombinant GST fusion ubiquitin (Ub) protein
T1 sequence (P22314 whole entry, other chains not shown, the tested form may be a part): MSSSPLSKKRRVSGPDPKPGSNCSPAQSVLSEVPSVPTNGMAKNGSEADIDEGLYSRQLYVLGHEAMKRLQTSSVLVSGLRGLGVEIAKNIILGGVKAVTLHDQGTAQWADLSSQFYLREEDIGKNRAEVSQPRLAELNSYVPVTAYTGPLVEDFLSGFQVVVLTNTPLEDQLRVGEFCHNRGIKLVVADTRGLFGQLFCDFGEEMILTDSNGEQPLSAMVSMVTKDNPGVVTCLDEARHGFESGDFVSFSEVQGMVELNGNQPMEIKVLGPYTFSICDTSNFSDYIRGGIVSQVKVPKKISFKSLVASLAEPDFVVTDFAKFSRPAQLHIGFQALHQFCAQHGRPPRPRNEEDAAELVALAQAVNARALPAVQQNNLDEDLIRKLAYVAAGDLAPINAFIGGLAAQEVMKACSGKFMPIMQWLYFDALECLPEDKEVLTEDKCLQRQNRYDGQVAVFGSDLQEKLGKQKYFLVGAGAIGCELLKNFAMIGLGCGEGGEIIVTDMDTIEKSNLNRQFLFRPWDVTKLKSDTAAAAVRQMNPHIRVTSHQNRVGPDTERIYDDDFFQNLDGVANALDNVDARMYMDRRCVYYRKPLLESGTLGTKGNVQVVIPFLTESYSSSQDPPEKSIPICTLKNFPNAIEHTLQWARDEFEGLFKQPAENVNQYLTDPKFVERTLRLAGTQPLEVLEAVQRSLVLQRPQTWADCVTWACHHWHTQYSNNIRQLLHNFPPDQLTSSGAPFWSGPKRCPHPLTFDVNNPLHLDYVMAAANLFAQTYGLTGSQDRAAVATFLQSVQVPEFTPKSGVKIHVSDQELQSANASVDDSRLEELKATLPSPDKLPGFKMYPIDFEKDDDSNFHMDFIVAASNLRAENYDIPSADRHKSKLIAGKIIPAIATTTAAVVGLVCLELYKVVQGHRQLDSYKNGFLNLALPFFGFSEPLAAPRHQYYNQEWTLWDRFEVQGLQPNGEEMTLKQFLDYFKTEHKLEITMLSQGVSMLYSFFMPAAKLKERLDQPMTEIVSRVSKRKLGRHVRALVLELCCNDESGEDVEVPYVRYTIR
T1 sequence (P62837 whole entry, other chains not shown, the tested form may be a part): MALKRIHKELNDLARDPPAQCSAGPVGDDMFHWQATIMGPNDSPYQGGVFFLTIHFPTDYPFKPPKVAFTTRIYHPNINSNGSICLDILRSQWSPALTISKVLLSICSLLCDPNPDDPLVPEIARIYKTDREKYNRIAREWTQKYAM
Experimental: This process was carried out basically in accordance with the method of Groisman et al. Firstly, CRBN and a binding protein (referred to as a CRBN complex) were purified from a cell lysate solution of mammalian cells expressing CRBN fused with a FLAG epitope tag using M2 FLAG agarose beads (SIGMA). Subsequently, the CRBN complex thus purified was mixed with an aqueous solution containing Uba1 (E1), UbcH5b (E2), and a recombinant GST fusion ubiquitin (Ub) protein, and after addition of ATP, the mixture was left to stand at 30 to 37° C. for two hours. Thereafter, the reaction was terminated by SDS, and self-ubiquitination and ubiquitination of the binding protein were visualized by polyacrylamide gel electrophoresis and immunoblotting, whereby the ubiquitin ligase activity was detected and measured.

[3] = test system: glia cells and serotonin-producing cells of zebrafish; assay: Fluorescent staining of glia cells and serotonin-producing cells; type: in vivo; conditions: CRBN-overexpressing individual
Experimental: Two-day-old zebrafish were used (for glia cell staining and serotonin-producing cell staining, zebrafish 56 hours and 49 hours after fertilization were used, respectively). Zebrafish were fixed with 4% paraformaldehyde (PFA) and then washed with phosphate buffer (PBS), followed by treatment with 10 μg/ml protease K for partial digestion of the epidermis. After the digestion reaction, the zebrafish were washed with PBST (PBS+0.5% Triton X-100) for 20 minutes and then fixed with PFA again. The fixed zebrafish were washed with PBST at room temperature for one hour, followed by blocking using PBST+5% goat serum. The resulting specimens were reacted with a monoclonal anti-glia antibody (zrf-1/zrf-2) or a rabbit anti-serotonin antibody at 4° C. overnight (12 to 18 hours). Subsequently, the specimens were washed with PBST+5% goat serum for one hour at room temperature, and secondary antibody reaction was carried out by substituting the antibody for a goat anti-mouse IgG antibody (Cy-2 conjugate for glia cell staining) or a goat anti-rabbit IgG antibody (Cy-5 conjugate for serotonin-producing cell staining) at 4° C. overnight (12 to 18 hours). Subsequently, the specimens were washed with PBST at room temperature for one hour. After washing, PBST was replaced by 30%, 50%, 70% glycerol/PBS and the whole zebrafish were mounted on glass slides to obtain preparations. Fluorescence was observed under excitation wavelength of Cy-2 and Cy-5 and the distribution of the glia cells or the serotonin-producing cells was recorded. It is to be noted that glia cells were observed from the lateral side of zebrafish, while the serotonin-producing cells were photographed from the dorsal side in order to observe the distribution of the cells along the midline.

zebrafish embryo brain = assay: Determination of functional hierarchy of Lhx2 and CRBN (knockdown plus head-specific overexpression); type: in vivo
Experimental: (§1) The method of lipofection was entirely in accordance with the technique developed and published by Ando et al. (Ando and Okamoto, Efficient transfection strategy for the spatiotemporal control of gene expression in zebrafish. Mar. Biotechnol. 8(3): 295-303, 2006).
An aqueous solution of a 25-mer antisense morpholino oligonucleotide (AMO, Gene Tools, LLC) corresponding to the vicinity of the translation initiation codon in the cDNA sequence of the gene to be knocked down (700 ng/μl, injection conditions were the same as those used for RNA) was injected into the embryos at the 1-cell stage. The sequence of AMO used for crbn gene knockdown is 5′ […] 3′ (SEQ ID NO:1), and that used for lhx2 gene knockdown is 5′ […] 3′ (SEQ ID NO:2).
This process was carried out entirely in accordance with the technique of Ando et al. (H. Ando et al., Lhx2 mediates the activity of Six3 in zebrafish forebrain growth. Dev. Biol. 287(2): 456-468, 2005) except for the following procedure. […] When the effect of knocking down of A is rescued, whereas the effect of knocking down of B is not rescued by an inverted combination of A and B, within a 24-hour period after fertilization, it is determined that A lies functionally upstream of B. […]

[4] = test system: forebrain and midbrain of the zebrafish embryos; assay: CRBN overexpression experiment in the forebrain and midbrain; type: in vivo
Experimental: Adult fish were reared at a constant temperature of 28.5° C. and maintained and bred under a diurnal cycle of 14 hours of light-on and 10 hours of light-off. Fertilized eggs were secured by natural mating between males and females, and an aqueous solution of 600 ng/μl capped RNA synthesized in vitro was injected into the cytoplasm of the embryos before the first cleavage (1-cell stage) under conditions of a nitrogen gas pressure of 30 psi and a valve opening time of 30 msec (millisecond). Because the expression of all the genes except the lhx2 gene (i.e., the crbn gene, the six3.2 gene, and a gene encoding a protein composing an E3 ubiquitin ligase complex with crbn) has little impact on the embryonic development, even when systemically expressed, this method was used to obtain the first data.
as §1
Antibody staining of early neurons of zebrafish was performed by the following technique. The embryos 24 to 28 hours after fertilization were fixed at 4° C. for 12 hours in a 4% paraformaldehyde/phosphate buffer (pH 8.0). […]

CC(C)C[C@@H](C=O)NC(=O)[C@H](CC(C)C)NC(=O)[C@H](CC(C)C)NC(=O)OCc1ccccc1 [MG132] (Cbz-Leu-Leu-Leu-aldehyde)
bands representing the CRBN-containing proteins (self-ubiquitination) [1]: a number of bands representing the CRBN-containing proteins were detected

FH-CRBN complex: CRBN fused with a FLAG epitope tag and binding proteins, purified from mammalian cell lysate with M2 FLAG agarose beads
detection of ubiquitinated proteins by immunoblotting [2]: proteins that would not be detected in the absence of addition of CRBN were detected

B1: CRBN: protein called CRBN (cereblon) that forms a ubiquitin ligase complex; overexpressed in zebrafish embryos by injected or lipofected crbn RNA (protein, UniProt Q68EH9 1-431, looked up)
Protein cereblon: MGNQLQLLPENEEEEEDDMETEDRDGEDVEKPSIINFDTSLPTSHAYLGSDMEEFHGRTLHDEDSVQNLPVLPHVALILIPGQTLPLQLFRPQEVSMFRNLVSQDRTFAVLAHSPDPSGTETKAEFGTTAEIYAFREEQEYGIETVKIKAVGRQRFRVHDIRTQADGIRQAKVQILPERILPDPLCALQFLPRLHTHSPQTKHTQTTPPQKRCSQNYRQKKLHCASMTSWPPWVYSLYDSKTLMSRVKKQLHEWDENLKDESLPTNPTDFSYRVAACLPIDDALRLQLLKIGSAIQRLRCELDIMDRCTSLCCKQCQDTEITSKNEIFSLSLYGPMAAYVNPHGYVHETLTVYKASNLNLIGRPSTLHSWFPGYAWTIAQCRTCSSHMGWKFSAVKKDLSPPRFWGLTRSALLPTIPQGEEGVEGSRLLCL
spatial distribution of glia cells and serotonin-producing cells [3]: normal spatial distribution was maintained
serotonin-producing cells ([3]; 49 hours after fertilization (FIG. 7)): increased
glia cells ([3]; 56 hours after fertilization (FIG. 6)): increased
brain size of embryo (zebrafish embryo brain; crbn gene-overexpressing embryo, compared to the normal embryo (FIG. 1, upper right)): brain enlargement
brain size of embryo (zebrafish embryo brain; lhx2 gene knocked down while crbn gene overexpressed (FIG. 1, lower right)): brain enlargement
morphology of the neuron network in the brain ([4]; CRBN overexpression (FIG. 2, right)): morphologically normal
enlargement of forebrain and midbrain in volume ([4]; CRBN overexpression, shape retained (FIG. 2, right)): approximately 1.5 times
